How the values were obtained:
[1] = biological target: T1, recombinant derivative of the LukD protein (SEQ ID NO: 824) with amino-terminal polyhistidine affinity tag, … (Staphylococcus aureus, UniProt Q2FXB1 27-327, chemically biotinylated in vitro (sites not given)); assay: ELISA, biotinylated LukD on streptavidin plate, mAb titrated
T1 construct: it carries the N-terminal His tag; also called biotinylated LukD; LukD antigen
T1 sequence: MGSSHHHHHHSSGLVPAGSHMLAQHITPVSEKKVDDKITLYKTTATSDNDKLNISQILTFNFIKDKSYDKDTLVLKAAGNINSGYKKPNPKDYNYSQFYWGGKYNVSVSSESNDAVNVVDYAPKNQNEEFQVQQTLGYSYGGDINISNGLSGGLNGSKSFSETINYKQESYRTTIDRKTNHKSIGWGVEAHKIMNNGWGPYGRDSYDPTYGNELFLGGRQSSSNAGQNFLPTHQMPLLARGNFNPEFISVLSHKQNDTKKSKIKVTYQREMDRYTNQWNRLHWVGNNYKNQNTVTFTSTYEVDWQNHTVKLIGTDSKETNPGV

[2] = biological target: T2, recombinant toxoid variant of the LukAB protein (LukA E323A) with poly-histidine and streptavidin binding … (Staphylococcus aureus, UniProt Q2FFA2 31-351; P21224 30-338); assay: ELISA, biotinylated LukAB toxoid on streptavidin plate, mAb titrated
T2 construct: also called LukAB toxoid protein; biotinylated LukAB

[3] = biological target: T3, recombinant derivative of the LukE protein (SEQ ID NO: 826) with amino-terminal poly-histidine affinity tag (Staphylococcus aureus, UniProt Q2FXB0 24-306); assay: ELISA, biotinylated LukE on streptavidin plate, mAb titrated
T3 construct: not biotinylated in HDX-MS and neutralization assays; also called biotinylated LukE; LukE antigen
T3 sequence: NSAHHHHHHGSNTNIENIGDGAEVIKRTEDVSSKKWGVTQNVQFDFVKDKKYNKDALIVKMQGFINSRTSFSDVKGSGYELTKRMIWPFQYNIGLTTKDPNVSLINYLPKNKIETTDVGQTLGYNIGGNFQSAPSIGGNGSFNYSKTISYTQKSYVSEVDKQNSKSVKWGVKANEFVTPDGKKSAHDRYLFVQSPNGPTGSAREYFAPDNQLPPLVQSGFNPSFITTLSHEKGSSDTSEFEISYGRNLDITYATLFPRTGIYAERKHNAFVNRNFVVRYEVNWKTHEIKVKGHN

[4] = biological target: T3, recombinant derivative of the LukE …; assay: BLI, sequential binding
[5] = biological target: T3, recombinant derivative of the LukE …; assay: HDX-MS, Fab with LukE in solution

B1: antibody SM1B225 (antibody, V domains shown)
VH: EVQLQQSGGGLVKPGGSLKLSCAASGFTFSSYAMSWVRQTPEKRLEWVATITGGGTYTYYLDSVKGRFTISRDNAKTSLYLQMSSLRSEDTAMYYCARHRDGNYGCFDVWGAGTTVTVSS
VL: DIVLTQSPAIMSASLGERVTMTCTASSSVSSSYLHWYQQKPGSSPKLWVYSTSNLASGVPARFSGSGSGSSYSLTISSMEPEDTATYYCHQYHRSPQTFGGGTKLEIKR
notes: also called anti-LukD mAb SM1B225
EC50 [1]: 0.01 to 0.2 µg/mL

B2: anti-LukAB mAb SM1B111 (antibody, V domains shown)
VH: EVQLQQSGAELVKPGASVKISCKASGYAFSSSWMNWLKQRPGKGLEWIGRIYPGDGDTNYNGKFKGKATLTADKSSSTAYMQLSSLTSEDSAVYFCARYGYDYDGEYYYAMDYWGQGTSVTVSS
VL: DIVMTQSPTTMAASPGERITITCSAHSNLISNYLHWYQQKPGFSPKLLIYRTSNLASGVPARFSGSGSGTSYSLTIGTMEAEDVATYFCQQGSSIPFTFGSGTKLEIKR
binding result [2]: binds

B3: anti-LukAB mAb SM1B245 (antibody, mouse IgG2a, kappa, V domains shown)
VH: QVQLQQSGAELAKPGASVKMSCKSSGYTFSTYWMHWVKQRPGQGLEWIGYINPNTGYTEYNQKFKDTATLTADKSSSTAYMQLSSLTSEDSAVYYCARGGSKAFPYYAMDYWGQGTSVTVSS
VL: DIVLTQSPASLAVSLGQRATMSCRASESVDGYGNSFLHWYQQKPGQPPKLLIYRASNLESGIPARFSGTGSRTDFTLTITPVEADDVATYYCQQSNGDPFTFGSGTKLEIKR
binding result [2]: binds

B4: anti-LukAB mAb SM1B252 (antibody, mouse IgG2a, kappa, V domains shown)
VH: QVQLQQSGAELMKPGASVKISCKASGYTFSDYWIEWIKQRPGHGLEWMGEILPGSDKTNYNEKFKGKATFTADSSSNTAYMQLNSLTSEDSAVFYCATAGDDYVKWGQGTLVTVSA
VL: DVLMTQTPLSLPVSLGDQASISCRSSQSIVYSNGNTYLEWYLQKPGQSPKLLIYKVSNRFSGVPDRFSGSGSGTDFTLKISRVEAEDLGVYYCFQGSHVPFTFGSGTKLEIKR
binding result [2]: binds

B5: anti-LukE mAb SM1B318 (antibody, mouse IgG2a, kappa, V domains shown)
VH: QVQLQQSGAELMNPGASVKISCKSTGYKFSSYWIEWVKQRPGHGLEWMGEILPGSGSTNHNEKFKGKAIFTADASSNTAYMELSSLTSEDSAVYYCARTISTATDWFAYWGQGTLVTVSA
VL: DVLMTQTPLSLPVSLGDQASISCRSSQTIVYSDGNTYLEWYLQKPGQSPKLLIYKVSNRFSGVPDRVSGSGSGTDFTLKISRVEAEDLGVYYCFQGSHVPYTFGGGTKLEIKR
binding result [3]: binds

B6: anti-LukE mAb SM1B507 (antibody, mouse IgG1, kappa)
heavy: EVQLQQSGAELVKPGASVKMSCKASGYTFTDYYMDWVKQSHGKSFEWIGHVNPYNGDTRYNQKFKGKATLTVDKSSTTAYMELNSLTSEDSAVYYCARGNFFDYWGQGTTLSVSSAKTTPPSVYPLAPGSAAQTNSMVTLGCLVKGYFPEPVTVTWNSGSLSSGVHTFPAVLESDLYTLSSSVTVPSSPRPSETVTCNVAHPASSTKVDKKIVPRDCGCKPCICTVPEVSSVFIFPPKPKDVLTITLTPKVTCVVVDISKDDPEVQFSWFVDDVEVHTAQTQPREEQFNSTFRSVSELPIMHQDWLNGKEFKCRVNSAAFPAPIEKTISKTKGRPKAPQVYTIPPPKEQMAKDKVSLTCMITDFFPEDITVEWQWNGQPAENYKNTQPIMNTNGSYFVYSKLNVQKSNWEAGNTFTCSVLHEGLHNHHTEKSLSHSPGK
light: DIVMTQSPAIMSASPGEKVTIPCSASSSVSYMHWFQQKPGTSPKLWIYSTSNLASGVPGRFSGSGSGTSYSLTISRMEAEDAATYYCQQRSNYPLTFGAGTKLELKRADAAPTVSIFPPSSEQLTSGGASVVCFLNNFYPKDINVKWKIDGSERQNGVLNSWTDQDSKDSTYSMSSTLTLTKDEYERHNSYTCEATHKTSTSPIVKSFNRNEC
binding result [4]: binds

B7: anti-LukE mAb SM1B332 (antibody, mouse IgG2a, kappa, V domains shown)
VH: QVQLKESGPGLVAPSQSLSITCTVSGLSLTSYGLSWVRQPPGKGLEWLGVIWGDGSTNYHSALISRLSISKDNSKSQVFLKLNSLQSDDTATYYCATRGDYGSYAMDYWGQGTSVTVSS
VL: QIVLTQSPAIMSASPGEKVTLTCSASSSVSSSYLFWYQQKPGSSPKLWIYSTSNLASGVPVRFSGSGFGTSYSLTISRMEAEDAASYFCHQWSSYPPTFGAGTKLELKR
EC50 [3]: ~0.05 µg/mL

B8: Fab SM1B438 (the Fab corresponding to mAb SM1B318) (Fab, V domains shown)
VH: QVQLQQSGAELMNPGASVKISCKSTGYKFSSYWIEWVKQRPGHGLEWMGEILPGSGSTNHNEKFKGKAIFTADASSNTAYMELSSLTSEDSAVYYCARTISTATDWFAYWGQGTLVTVSA
VL: DVLMTQTPLSLPVSLGDQASISCRSSQTIVYSDGNTYLEWYLQKPGQSPKLLIYKVSNRFSGVPDRVSGSGSGTDFTLKISRVEAEDLGVYYCFQGSHVPYTFGGGTKLEIKR
binding result [5]: binds

B9: Fab SM1B709 (the Fab corresponding to mAb SM1B507) (Fab, V domains shown)
VH: EVQLQQSGAELVKPGASVKMSCKASGYTFTDYYMDWVKQSHGKSFEWIGHVNPYNGDTRYNQKFKGKATLTVDKSSTTAYMELNSLTSEDSAVYYCARGNFFDYWGQGTTLSVSS
VL: DIVMTQSPAIMSASPGEKVTIPCSASSSVSYMHWFQQKPGTSPKLWIYSTSNLASGVPGRFSGSGSGTSYSLTISRMEAEDAATYYCQQRSNYPLTFGAGTKLELKR
binding result [5]: binds

— US20200317758A1 (NEW YORK UNIVERSITY, published 2020)
